The numbers were not newly measured in publication PMC6472351, which cites them from elsewhere.

Where “and” joins values, the source holds several entries; their conditions need not be identical. Equal values may be shown once. Read-outs that look alike come from different tables or passages of the source.

The target in data set [1] is Histone H3 (Homo sapiens) (UniProt P68431).
For data set [2] the target is unchanged. The source holds these as a separate data set.

Consider DIDO PHD (from UniProt Q9BTC0), for which, in data set [1], the Kd is 6 µM and 1 µM.

As for GLP ankyrin (from UniProt Q9H9B1), the Kd in data set [2] was 5 µM and 7 µM.
